Test results reported in US20040018971A1 (published 2004).

biological target: HLA-B*0702 (human); assay: competition with 125I-labelled probe peptide for purified HLA, gel filtration

Compared with KPCARVCYGL (also called Her2/neu.336) [HER2/neu peptide, position 336, 10 amino acids], CPINCTHSCV [HER2/neu peptide, position 626, 10 amino acids] is lower in relative binding ratio: 0.037 ratio (IC50 of standard / IC50 of test peptide) for the first, 0.0002 ratio (IC50 of standard / IC50 of test peptide) for the second.

CPDPAPGA [HER2/neu peptide, position 1032, 8 amino acids] and LPSETDGY [HER2/neu peptide, position 1120, 8 amino acids] cannot be ordered by relative binding ratio: < 0.0002 ratio (IC50 of standard / IC50 of test peptide) for the first, < 0.0006 ratio (IC50 of standard / IC50 of test peptide) for the second.

Compared with GPLPAARPAGA [HER2/neu peptide, position 1155, 11 amino acids], KPDLSYMPI (also called Her2/neu.605) [HER2/neu peptide, position 605, 9 amino acids] is higher in relative binding ratio: 0.016 ratio (IC50 of standard / IC50 of test peptide) for the first, 0.072 ratio (IC50 of standard / IC50 of test peptide) for the second.

First: GPASPLDSTF [HER2/neu peptide, position 995, 10 amino acids]
Second: APLTCSPQPEY [HER2/neu peptide, position 1129, 11 amino acids]
The relative binding ratio of the first is higher: 0.051 ratio (IC50 of standard / IC50 of test peptide) for the first, < 0.0002 ratio (IC50 of standard / IC50 of test peptide) for the second.

First: GPKHSDCLACL [HER2/neu peptide, position 246, 11 amino acids]
Second: HPPPAFSPAF [HER2/neu peptide, position 1208, 10 amino acids]
The relative binding ratio of the first is lower: 0.0006 ratio (IC50 of standard / IC50 of test peptide) for the first, 0.0018 ratio (IC50 of standard / IC50 of test peptide) for the second.

CPLHNQEV [HER2/neu peptide, position 315, 8 amino acids] and KPDLSYMPIW [HER2/neu peptide, position 605, 10 amino acids] cannot be ordered by relative binding ratio: < 0.0006 ratio (IC50 of standard / IC50 of test peptide) for the first, 0.0001 ratio (IC50 of standard / IC50 of test peptide) for the second.

Compared with LPTHDPSPL [HER2/neu peptide, position 1101, 9 amino acids], IPDLLEKGERL [HER2/neu peptide, position 931, 11 amino acids] is lower in relative binding ratio: 0.046 ratio (IC50 of standard / IC50 of test peptide) for the first, < 0.0002 ratio (IC50 of standard / IC50 of test peptide) for the second.

IPDGENVKI [HER2/neu peptide, position 740, 9 amino acids] and GPEADQCVA [HER2/neu peptide, position 578, 9 amino acids] are the same in relative binding ratio: 0.0001 ratio (IC50 of standard / IC50 of test peptide) for the first, 0.0001 ratio (IC50 of standard / IC50 of test peptide) for the second.

First: IPVAIKVL [HER2/neu peptide, position 748, 8 amino acids]
Second: CPDPAPGAGGM [HER2/neu peptide, position 1032, 11 amino acids]
The relative binding ratio of the first is higher: 0.012 ratio (IC50 of standard / IC50 of test peptide) for the first, < 0.0002 ratio (IC50 of standard / IC50 of test peptide) for the second.

Going from CPSGVKPDLSY (also called Her2/neu.600) [HER2/neu peptide, position 600, 11 amino acids] to APSEGAGSDVF [HER2/neu peptide, position 1076, 11 amino acids], the relative binding ratio falls from 0.03 ratio (IC50 of standard / IC50 of test peptide) to 0.0006 ratio (IC50 of standard / IC50 of test peptide).

Going from GPKHSDCL [HER2/neu peptide, position 246, 8 amino acids] to GPGPTQCV [HER2/neu peptide, position 522, 8 amino acids], the relative binding ratio falls from 0.0092 ratio (IC50 of standard / IC50 of test peptide) to < 0.0006 ratio (IC50 of standard / IC50 of test peptide).

Going from GPLPAARPA [HER2/neu peptide, position 1155, 9 amino acids] to LPDLSVFQNL [HER2/neu peptide, position 419, 10 amino acids], the relative binding ratio falls from 0.09 ratio (IC50 of standard / IC50 of test peptide) to 0.0003 ratio (IC50 of standard / IC50 of test peptide).

EPLTPSGA [HER2/neu peptide, position 698, 8 amino acids] and DPQRFVVI [HER2/neu peptide, position 982, 8 amino acids] cannot be ordered by relative binding ratio: < 0.0002 ratio (IC50 of standard / IC50 of test peptide) for the first, < 0.0006 ratio (IC50 of standard / IC50 of test peptide) for the second.

First: DPSPLQRY [HER2/neu peptide, position 1105, 8 amino acids]
Second: IPAREIPDL [HER2/neu peptide, position 926, 9 amino acids]
The relative binding ratio of the first is lower: < 0.0006 ratio (IC50 of standard / IC50 of test peptide) for the first, 0.0006 ratio (IC50 of standard / IC50 of test peptide) for the second.

LPSETDGYVA [HER2/neu peptide, position 1120, 10 amino acids] and GPEADQCVACA [HER2/neu peptide, position 578, 11 amino acids] cannot be ordered by relative binding ratio: 0.0001 ratio (IC50 of standard / IC50 of test peptide) for the first, < 0.0003 ratio (IC50 of standard / IC50 of test peptide) for the second.

LPESFDGDPA [HER2/neu peptide, position 377, 10 amino acids] and DPAPGAGGM [HER2/neu peptide, position 1034, 9 amino acids] are the same in relative binding ratio: 0.0001 ratio (IC50 of standard / IC50 of test peptide) for the first, 0.0001 ratio (IC50 of standard / IC50 of test peptide) for the second.

Going from CPLHNQEVTA [HER2/neu peptide, position 315, 10 amino acids] to APLQPEQLQVF [HER2/neu peptide, position 390, 11 amino acids], the relative binding ratio rises from 0.0001 ratio (IC50 of standard / IC50 of test peptide) to 0.0011 ratio (IC50 of standard / IC50 of test peptide).

Going from LPTNASLSFL (also called Her2/neu.65) [HER2/neu peptide, position 65, 10 amino acids] to APQPHPPPAF [HER2/neu peptide, position 1204, 10 amino acids], the relative binding ratio rises from 0.019 ratio (IC50 of standard / IC50 of test peptide) to 0.053 ratio (IC50 of standard / IC50 of test peptide).

KPCARVCY [HER2/neu peptide, position 336, 8 amino acids] and GPTQCVNCSQF [HER2/neu peptide, position 524, 11 amino acids] cannot be ordered by relative binding ratio: < 0.0006 ratio (IC50 of standard / IC50 of test peptide) for the first, 0.0005 ratio (IC50 of standard / IC50 of test peptide) for the second.

LPTDCCHEQCA [HER2/neu peptide, position 231, 11 amino acids] and LPPGAASTQV [HER2/neu peptide, position 16, 10 amino acids] cannot be ordered by relative binding ratio: < 0.0003 ratio (IC50 of standard / IC50 of test peptide) for the first, 0.0002 ratio (IC50 of standard / IC50 of test peptide) for the second.

Compared with LPASPETHLDM [HER2/neu peptide, position 35, 11 amino acids], LPSETDGYV [HER2/neu peptide, position 1120, 9 amino acids] is higher in relative binding ratio: < 0.0002 ratio (IC50 of standard / IC50 of test peptide) for the first, 0.0002 ratio (IC50 of standard / IC50 of test peptide) for the second.

Compared with LPAARPAGATL [HER2/neu peptide, position 1157, 11 amino acids], CPAEQRASPL (also called Her2/neu.642) [HER2/neu peptide, position 642, 10 amino acids] is higher in relative binding ratio: 0.014 ratio (IC50 of standard / IC50 of test peptide) for the first, 0.15 ratio (IC50 of standard / IC50 of test peptide) for the second.

Compared with DPASNTAPL [HER2/neu peptide, position 384, 9 amino acids], LPASPETHL [HER2/neu peptide, position 35, 9 amino acids] is lower in relative binding ratio: 0.0004 ratio (IC50 of standard / IC50 of test peptide) for the first, 0.0002 ratio (IC50 of standard / IC50 of test peptide) for the second.

Compared with HPPPAFSPA [HER2/neu peptide, position 1208, 9 amino acids], EPLTPSGAM [HER2/neu peptide, position 698, 9 amino acids] is higher in relative binding ratio: 0.0093 ratio (IC50 of standard / IC50 of test peptide) for the first, 0.011 ratio (IC50 of standard / IC50 of test peptide) for the second.

First: IPAREIPDLL [HER2/neu peptide, position 926, 10 amino acids]
Second: LPREYVNA [HER2/neu peptide, position 550, 8 amino acids]
The relative binding ratio of the first is lower: 0.0004 ratio (IC50 of standard / IC50 of test peptide) for the first, 0.0012 ratio (IC50 of standard / IC50 of test peptide) for the second.

First: DPAPGAGGMV [HER2/neu peptide, position 1034, 10 amino acids]
Second: CPYNYLSTDV [HER2/neu peptide, position 299, 10 amino acids]
The relative binding ratio of the first is lower: 0.0002 ratio (IC50 of standard / IC50 of test peptide) for the first, 0.0016 ratio (IC50 of standard / IC50 of test peptide) for the second.

First: KPYDGIPAREI [HER2/neu peptide, position 921, 11 amino acids]
Second: HPECQPQNGSV [HER2/neu peptide, position 564, 11 amino acids]
The relative binding ratio of the first is higher: 0.043 ratio (IC50 of standard / IC50 of test peptide) for the first, < 0.0002 ratio (IC50 of standard / IC50 of test peptide) for the second.

Going from APQPHPPPA [HER2/neu peptide, position 1204, 9 amino acids] to IPDGENVKIPV [HER2/neu peptide, position 740, 11 amino acids], the relative binding ratio falls from 0.0056 ratio (IC50 of standard / IC50 of test peptide) to 0.0023 ratio (IC50 of standard / IC50 of test peptide).

First: CPSGVKPDL [HER2/neu peptide, position 600, 9 amino acids]
Second: MPNPEGRY [HER2/neu peptide, position 282, 8 amino acids]
The relative binding ratio of the first is higher: 0.014 ratio (IC50 of standard / IC50 of test peptide) for the first, < 0.0006 ratio (IC50 of standard / IC50 of test peptide) for the second.

GPEADQCV [HER2/neu peptide, position 578, 8 amino acids] and APSEGAGSDV [HER2/neu peptide, position 1076, 10 amino acids] cannot be ordered by relative binding ratio: < 0.0006 ratio (IC50 of standard / IC50 of test peptide) for the first, 0.0002 ratio (IC50 of standard / IC50 of test peptide) for the second.

First: LPAARPAGA [HER2/neu peptide, position 1157, 9 amino acids]
Second: GPASPLDSTFY [HER2/neu peptide, position 995, 11 amino acids]
The relative binding ratio of the first is lower: 0.0027 ratio (IC50 of standard / IC50 of test peptide) for the first, 0.0036 ratio (IC50 of standard / IC50 of test peptide) for the second.

With DPLNNTTPV [HER2/neu peptide, position 121, 9 amino acids] the relative binding ratio was 0.0002 ratio (IC50 of standard / IC50 of test peptide).

biological target: T1, HLA-A*0101 (human); assay: competition with 125I-labelled probe peptide for purified HLA-A*0101, gel filtration; relative to standard peptide
T1 construct: also called HLA-A1

First: AFSPAFDNLYY [HER2/neu peptide, position 1212, 11 amino acids]
Second: ASPLDSTFY [HER2/neu peptide, position 997, 9 amino acids]
The “relative binding ratio (IC50 of standard peptide / IC50 of test peptide)” value of the first is lower: 0.014 relative binding ratio for the first, 0.029 relative binding ratio for the second.

First: ASCVTACPY (also called Her2/neu.293) [HER2/neu peptide, position 293, 9 amino acids]
Second: EADQCVACAHY (also called Her2/neu.580) [HER2/neu peptide, position 580, 11 amino acids]
The “relative binding ratio (IC50 of standard peptide / IC50 of test peptide)” value of the first is lower: 0.055 relative binding ratio for the first, 0.1 relative binding ratio for the second.

Compared with ETHLDMLRHLY (also called Her2/neu.40) [HER2/neu peptide, position 40, 11 amino acids], CSKPCARVCY [HER2/neu peptide, position 334, 10 amino acids] is lower in “relative binding ratio (IC50 of standard peptide / IC50 of test peptide)” value: 0.28 relative binding ratio for the first, 0.0016 relative binding ratio for the second.

Compared with ETLEEITGY [HER2/neu peptide, position 401, 9 amino acids], AFSPAFDNLY [HER2/neu peptide, position 1212, 10 amino acids] is lower in “relative binding ratio (IC50 of standard peptide / IC50 of test peptide)” value: 0.043 relative binding ratio for the first, 0.001 relative binding ratio for the second.

In the case of DMGDLVDAEEY [HER2/neu peptide, position 1013, 11 amino acids], the “relative binding ratio (IC50 of standard peptide / IC50 of test peptide)” value is reported as 0.0027 relative binding ratio.
